Data on 23 molecules can be found in US20210292393A1 (published 2021).

The labels stand for the following.
B1: antibody 303 (antibody, V domains shown)
VH: QVQLVESGGGVVQPGRSLRLSCAASGFNLSSYAMHWVRQASGKGLEWVSLISYDGSIKYYADSVKGRFTVSGDNSKNMLFLQMNSLRADDSALYYCVRGGVSGPNAFDIWGQGTTVTVSS
VL: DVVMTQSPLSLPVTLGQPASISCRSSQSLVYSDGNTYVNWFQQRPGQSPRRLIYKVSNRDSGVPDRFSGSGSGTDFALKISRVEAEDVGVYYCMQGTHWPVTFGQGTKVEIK
B2: antibody 264 (antibody, V domains shown)
VH: QVHLVESGGGVVQPGRSLRLSCAASGFTLTSYAMHWVRQAPGKGLEWVALISYDGSVKKYAESVKGRITVSGDNSRNTLHLQINTLRADDTAVYYCVRGGVSGPNSFDLWGQGTMVTVSS
VL: DVVMTQSPLSLPVTLGQPASISCRSSQSLEYSDGNTYVNWFQQRPGQSPRRLIYQVSNRASGVPDRFSGSGSGTDFTLQISRVEAEDVGIYYCMQGTHWPVTFGQGTKVEIK
B3: antibody 266 (antibody, V domains shown)
VH: B1 VH with S31N, A40P, A61T, M78T, A88P, A106S, I109M
VL: B2 VL with E30V, N58I, T77A, Q79K, I90V
B4: antibody 284 (antibody, V domains shown)
VH: QVTLRESGPALVKPTQTLTLTCTFSGFSLSTSGMCVSWIRQPPGKALEWLALIDWDDDKYYSTSLKTRLTISKDTSKNQVVLTMTNMDPVDTATYYCARTSGYSSSWPSFDYWGQGTLVTVSS
VL: not shown
B5: antibody 294 (antibody, V domains shown)
VH: EVQLVESGGGLVQPGGSLRLSCAASGFTVSSNYMNWVRQAPGKGLEWVSVIYSGGSTYYADSVKGRFTISRDNSKNTLYLQMNSLRAEDTAVYYCARDLGPSGMDVWGQGTTVTVSS
VL: DIQMTQSPSSVSASVGDRVTITCRASQGISSWLAWYQQKPGKAPKLLIYAASSLQSGVPSRFSGSGSGTDFTLTISSLQPEDFATYYCQQANSFPLFGGGTKVEIK
B6: antibody 281 (antibody, V domains shown)
VH: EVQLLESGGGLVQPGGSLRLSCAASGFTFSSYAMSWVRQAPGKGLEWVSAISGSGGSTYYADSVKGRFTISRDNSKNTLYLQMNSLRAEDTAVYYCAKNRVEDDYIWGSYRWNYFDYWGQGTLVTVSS
VL: QSALTQPASVSGSPGQSITISCTGTSSDVGSYNLVSWYQQHPGKAPKLMIYEVSKRPSGVSNRFSGSKSGNTASLTISGLQAEDEADYYCCSYAGSSTHVVFGGGTKLTVL
B7: antibody 263 (antibody, V domains shown)
VH: EVQLVQSGAEVKKPGATVKISCKVSGYTFTDYYMHWVQQAPGKGLEWMGLVDPEDGETIYAEKFQGRVTITADTSTDTAYMELSSLRSDDTAVYYCTTDLAFTIFGGRRGFDPWGQGTLVTVSS
VL: DIQLTQSPSFLSASVGDRVTITCRASQGISSYLAWYQQKPGKAPKLLIYAASTLQSGVPSRFSGSGSGTEFTLTISSLQPEDFATYYCQQLNSYDFGQGTRLEIK
B8: antibody 265 (antibody, V domains shown)
VH: EVQLVQSGAEVKKPGATVKVSCKFSGDTFSHYYIHWVQQAPGKGLEWMGLVDPQDGESEYAQKFQGKVTITADTSIDTSYLEVTSLRFDDTAFYFCATRGMSGAFDRWGQGTLVTVSS
VL: DIVMTQSPDSLAVSLGERATINCKSSQSILSTSNNKNYLAWYQQKPGQPPKLLIYWASTRESGVPDRFSGGGSGTDFTLTISSLQAEDVAVYYCQQYYRTAYTTPIYTFGQGTKLEIK
B9: antibody 276 (antibody, V domains shown)
VH: QVQLQESGPGLVKPSQTLSLTCTVSGDSISSGGYYWSWIRQHPGKGLEWIGYIYYSGSAYYNPSLKSRVTISLDTSKNQFSLKLSSVTAADTAVYYCARDSVAGFSIFDYWGQGTLVTVSS
VL: SSELTQDPAVSVALGQTVRITCQGDSLRSYYASWYQQKPGQAPVRVIYGKNNRPSGIPDRFSGSSSGNTASLTITGAQAEDEADYYCNSWDSSGNHVVFGGGTKLTVL
B10: antibody 273 (antibody, V domains shown)
VH: QVQLVQSGAEVKKPGASVKVSCKVSGYTLTELSMHWVRQAPGKGLEWMGGFDPEDGETIYAQKFQGRVTMTEDTSTDTAYMELSSLRSEDTAVYYCATAPGYYDSSAPQPINWFDPWGQGTLVTVSS
VL: QSALTQPASVSGSPGQSITISCTGTSSDVGSYNLVSWYQQHPGKAPKLMIYEVSKRPSGVSNRFSGSKSGNTASLTISGLQAEDEADYYCCSYAGSSTLVFGGGTKLTVL
B11: antibody 260 (antibody, V domains shown)
VH: EVQLVESGGGLVQPGRSLRLSCAASGFTFDYYAMHWVRQAPGKGLEWVSGISWNSGTIGYADSVKGRFTISRDNAKNSLYLQMNSLRAEDTALYYCAKDSRPSGRYYYGMDVWGQGTTVTVSS
VL: not shown
B12: antibody 288 (antibody, V domains shown)
VH: EVQLVESGGGLVQPGGSLRLSCAASGFTFSSYDMHWVRQATGKGLEWVSAIGTAGDTYYPGSVKGRFTISRENAKNSLYLQMNSLRAGDTAVYYCARGANRDYDILTGYYSYYYYGMDVWGQGTTVTVSS
VL: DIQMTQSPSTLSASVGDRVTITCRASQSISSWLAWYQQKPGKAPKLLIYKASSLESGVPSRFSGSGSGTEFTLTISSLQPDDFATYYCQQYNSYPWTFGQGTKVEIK
B13: antibody 300 (antibody, V domains shown)
VH: QVQLVESGGGVVQPGRSLTLSCAASGFTFSSYAMHWVRQAPGKGLEWVALISYDGNNKYYADSVKGRFTFSRDNSKNTLYLQMNSLRAEDTAVYYCARTNSGSYRTAFDYWGQGTLVTVSS
VL: DIQMTQSPSTLSASVGDRVTITCRASQSISIWLAWYQQKPGKAPKLLIYKASSLESGVPSRFSGSGSGTEFTLTISSLQPDDFATYYCQQYNSLWTFGQGTKVEIK
B14: antibody 295 (antibody, V domains shown)
VH: QVQLQESGPGLVKPSQTLSLTCTVSGGSISSSDYYWSWIRQPPGKGLEWIGYIYYSGSTYYNPSLKSRVTISVDTSKNQFSLKLSSVTAADTAVYYCARVVGYCSSTSCYVDYWGQGTLVTVSS
VL: EIVLTQSPATLSLSPGERVTLSCRASQSVSSYLAWYQQKPGQAPRLLIYDASNRATGIPARFSGSGSGTDFTLTISSLEPEDFAVYYCQQRSNWPPGLTFGGGTKVEIK
B15: antibody 301 (antibody, V domains shown)
VH: QVQLVQSGAEVKKPGASVKVSCKVSGYTLTELSMHWVRQAPGKGLEWMGGFDPEDGETIYAQKFQGRVTMTEDTSTDTAYMELSSLRSEDTAVYYCATAFCGGDCYPPDALDIWGQGTMVTVSS
VL: DIQMTQSPSSVSASVGDRVTITCRASQGISSWLAWYQQKPGKAPKLLIYAASSLQSGVPSRFSGSGSGTDFTLTISSLQPEDFATYYCQQANSFPLTFGGGTKVEIK
B16: antibody 470 (antibody, V domains shown)
VH: not shown
VL: B10 VL
B17: antibody 471 (antibody, V domains shown)
VH: QVQLVESGGGVVQPGRSLRLSCAASGFTFSSYAMHWVRQAPGKGLEWVAVISYDGSNKYYADSVKGRFTISRDNSKNTLYLQMNSLRAEDTAVYYCAKQYSPYCSGGSCYSGASDYWGQGTLVTVSS
VL: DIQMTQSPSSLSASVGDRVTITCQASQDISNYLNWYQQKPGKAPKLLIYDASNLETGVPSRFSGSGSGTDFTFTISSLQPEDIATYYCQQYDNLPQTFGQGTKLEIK
B18: anti-SARS-CoV-2 antibody 1091 (antibody, V domains shown)
VH: EVQLVESGGGLVKPGGSLRLSCAASGFPFITYSMNWVRQAPGKGLEWVSSISRNSDYIYYADSVRGRVTISRDNAENSLYLQMHSLRAEDTAVYYCARDVVRSGNYYIPRHGMDVWGRGTTVTVSS
VL: QSVLTQPPSASGTPGQRVTISCSGTSSNIGSNTVNWYQQLPETAPKLLIYGTDQRPSGVPDRFSGSKSGTSASLAISRLQSEDEADYYCATRDDSLSGPVFGGGTQLTVL
B19: anti-SARS-CoV-2 antibody 1118 (antibody, V domains shown)
VH: EVQLVESGGGLVQPGGSLRLSCAASGFRFSNYEMNWVRQAPGKGLEWVSYISSTGGSIFYADSVKGRFTISRGDAKNSVYLQMNSLRAEDTAVYYCARAMYYYGSGTLDYWGQGTLVTVSS
VL: DIQMTQSPSSLSASVGDRVTITCRASQSISRFLNWYQQKPGTAPKLLIYDVSSLQSGVPTRFSGSGSGTDFTLTISSLQPEDFATYYCQQSYTTPPAFGPGTRVDIK
B20: anti-SARS-CoV-2 antibody 1203 (antibody, V domains shown)
VH: QLRLQESGPGLVKPSETLSLTCTVSGGSISSSNFYWGWIRQPPGKGLEWIGSIYYSGSTHYNPSLKSRVTVSVDTSKNQFSLKLSSVTAADTAVYYCARLTYYYDSSGFIRAEPFDYWGQGILVTVSS
VL: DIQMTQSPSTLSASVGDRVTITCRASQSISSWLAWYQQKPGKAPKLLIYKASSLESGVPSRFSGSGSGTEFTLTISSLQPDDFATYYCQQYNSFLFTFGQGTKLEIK
B21: anti-SARS-CoV-2 antibody 1081 (antibody, V domains shown)
VH: EVQLVQSGAEVKKPGESLKISCKRSGYSFTTYWIGWVRQMPGKGLEWMGSIYPGDSDTRYSPSFQGQVTISADKSISTAYLQWSSLKASDTAMYYCASQEVPGYYYYMDVWGKGTTVTVSS
VL: DIQMTQSPSSLSASVGDRVTITCRASQSISSYLHWYQQKPGKAPKLLIYAASSLQSGVPSRFSGSGSGTDFTLTISSLQPEDFATYYCQQTYSTHTWTFGQGTKVEIK
B22: anti-SARS-CoV-2 antibody 1098 (antibody, V domains shown)
VH: B21 VH with E1D, R24G, S28R, T31S, G35A, S50I, E100A, V101A, P102A, Y105F
VL: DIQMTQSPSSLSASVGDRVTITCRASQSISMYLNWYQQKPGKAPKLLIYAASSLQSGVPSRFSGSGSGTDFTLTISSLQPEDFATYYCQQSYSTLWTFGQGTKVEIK
B23: anti-SARS-CoV-2 antibody 1193 (antibody, V domains shown)
VH: EVQLVESGGGLVQPGGSLRLSCAASGFTFSSYYMNWVRQAPGKGLEWVSYISSGSSIIYYADSVKGRFTISRDNAKNSLYLQMNSLRDEDTAVYYCARDSPLRYFDWQLGGGFDYWGQGTLVTVSS
VL: B10 VL with S31G, L34Y, E52D, K55N, C91S, A94T, G95S, T98L, L99W

For orientation: Kd means the equilibrium constant for the complex coming apart.

Numbering of substitutions follows the chain as printed.

The first test deals with SARS-CoV-2 full length spike protein, V483A mutant (SARS-CoV-2, UniProt P0DTC2 14-1273).
B1: the “median fluorescence intensity, fold over isotype control” value (shortened to “median fluorescence intensity, fold”) came out at 10 fold over isotype.

Regarding B2, the “median fluorescence intensity, fold” value was 11.1 fold over isotype.

As to B3, the “median fluorescence intensity, fold” value was 10.8 fold over isotype.

In the case of B4, the “median fluorescence intensity, fold” value was 22 fold over isotype.

Consider B5, for which the “median fluorescence intensity, fold” value turned out to be 18.4 fold over isotype.

Turning to B6, the “median fluorescence intensity, fold” value came out at 20.3 fold over isotype.

On to B7, for which the “median fluorescence intensity, fold” value was determined as 17.3 fold over isotype.

For the molecule B8, the “median fluorescence intensity, fold” value was 14.5 fold over isotype.

As to B9, the “median fluorescence intensity, fold” value is 11.1 fold over isotype.

For B10, the “median fluorescence intensity, fold” value stood at 16 fold over isotype.

As to B11, the “median fluorescence intensity, fold” value was 11 fold over isotype.

As for B12, the “median fluorescence intensity, fold” value turned out to be 18.7 fold over isotype.

Regarding B13, the “median fluorescence intensity, fold” value turned out to be 10.2 fold over isotype.

In the case of B14, the “median fluorescence intensity, fold” value came out at 9.93 fold over isotype.

As to B15, the “median fluorescence intensity, fold” value was determined as 21.3 fold over isotype.

For the next test, the target named is SARS-CoV-2 full length spike protein, V483A mutant, expressed on CHO cells (SARS-CoV-2, UniProt P0DTC2 14-1273).
B16: the “median fluorescence intensity, fold” value came out at 7.63 fold over isotype.

For B17, the “median fluorescence intensity, fold” value was found to be 2.75 fold over isotype.

In another test the target is SARS-CoV-2 spike protein with D614G mutation (SARS-CoV-2, UniProt P0DTC2 14-1208).
In the case of B18, the affinity, expressed as Kd, was 0.019 nM.

Take B19: binding was put at a Kd of 0.044 nM.

Molecule B20 had a Kd of 0.079 nM.

In turn, B21 yielded a Kd of 0.041 nM.

Turning to B22, binding was characterised by a dissociation constant (Kd) of 0.022 nM.

For the molecule B23, binding was characterised by a dissociation constant (Kd) of 0.041 nM.
